Reference: article PMC8093215 (2021)

Key:
[1] = target: hDNMT1 BAH1 domain Y775A (human, UniProt P26358 728-900, Y775A); assay: ITC
[2] = target: hDNMT1 BAH1 domain D768A (human, UniProt P26358 728-900, D768A); assay: ITC
hDNMT1 BAH1 domain D768A, sequence (P26358 728-900 D768A): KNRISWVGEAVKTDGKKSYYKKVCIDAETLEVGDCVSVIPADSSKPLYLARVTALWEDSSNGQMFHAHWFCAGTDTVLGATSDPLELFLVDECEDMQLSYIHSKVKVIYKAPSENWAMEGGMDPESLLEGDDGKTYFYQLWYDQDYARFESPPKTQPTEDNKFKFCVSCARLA

hDNMT1 BAH1 domain Y775A, sequence (P26358 728-900 Y775A): as the sequence (P26358 728-900 D768A) above, with A41D, Y48A counted along it

- Kd [1]: 361 µM
- Kd [2]: 10 µM
B1: H4(14–25)K20me3 peptide (peptide)
peptide: GAKRHRKVLRDNY
modifications: trimethyl-lysine at K20
